Data set [1] addresses T1, rat liver insulin receptor (WGA-IR) (Rattus norvegicus, UniProt P15127).
T1 construct: tissue Sigma (named as alternative source) 70543; host or cells: rat liver
The data set is described as follows: ALPHAScreen: phosphorylation of biotinylated IRS-1 fragment by wheat germ lectin affinity-purified rat liver insulin receptor. It counts as biochemical. The settings on record: 85 nM biotinylated IRS fragment, 50 μM ATP, 30° C. for 30 minutes, p-Tyr antibody detection, FIG. 4. An excerpt: The measurement of the kinase activity using ALPHAScreen™ from Perkin-Elmer Life Sciences, which is particularly expedient for the purposes of the present invention, takes place for example by the kinase to be investigated phosphorylating a biotinylated peptide in a biochemical mixture in the presence of ATP. The phosphorylated peptide is then bound by a specific anti-phospho antibody to which protein A-conjugated acceptor beads or provided with suitable second antibodies are coupled. The same mixture contains streptavidin-coupled donor beads which bind the biotin portion of the peptide. The binding to the peptide brings acceptor beads and donor beads in direct vicinity, starting a cascade of chemical reactions which generate a highly amplified, detectable luminescence signal: a photosensitizer in the donor bead is excited by laser excitation to convert oxygen in the surroundings into a singlet status. The singlet oxygen then diffuses to the acceptor bead where it excites a thioxene derivative which thus emits a chemiluminescence with a wavelength of 370 nm, which in turn excites further fluorophores in the acceptor bead to luminesce light with wavelengths of 520 to 620 nm. Since excitation of the fluorophores by singlet oxygen takes place only when donor bead and acceptor bead are in close vicinity, only then are detectable signals generated. […]
For orientation: Alpha assays give light when donor and acceptor beads are brought close together.

For data set [2] the following is noted: kinetic constant as enzyme substrate; cited from earlier work.

T1 sequence (P15127 27-759 limits assumed): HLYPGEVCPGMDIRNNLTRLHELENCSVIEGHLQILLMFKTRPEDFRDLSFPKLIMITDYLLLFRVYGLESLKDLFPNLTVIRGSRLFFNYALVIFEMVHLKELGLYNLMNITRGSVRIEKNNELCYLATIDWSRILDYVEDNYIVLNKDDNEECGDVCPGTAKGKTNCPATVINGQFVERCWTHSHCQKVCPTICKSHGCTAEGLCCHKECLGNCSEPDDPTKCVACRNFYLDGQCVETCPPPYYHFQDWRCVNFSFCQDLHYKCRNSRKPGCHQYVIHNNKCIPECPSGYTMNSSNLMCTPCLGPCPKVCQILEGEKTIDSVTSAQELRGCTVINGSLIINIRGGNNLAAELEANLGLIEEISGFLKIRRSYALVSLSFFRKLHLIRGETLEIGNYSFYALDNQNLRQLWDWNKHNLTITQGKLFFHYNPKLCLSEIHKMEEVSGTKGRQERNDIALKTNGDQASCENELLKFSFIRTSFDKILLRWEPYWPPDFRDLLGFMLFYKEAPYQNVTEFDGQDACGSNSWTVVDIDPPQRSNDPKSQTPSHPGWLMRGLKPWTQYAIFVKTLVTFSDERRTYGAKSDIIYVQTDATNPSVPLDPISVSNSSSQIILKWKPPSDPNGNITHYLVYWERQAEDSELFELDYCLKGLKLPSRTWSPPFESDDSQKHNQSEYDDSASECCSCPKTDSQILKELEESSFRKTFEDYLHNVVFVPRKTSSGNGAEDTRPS
T1 sequence (P15127 764-1383 partner limits assumed): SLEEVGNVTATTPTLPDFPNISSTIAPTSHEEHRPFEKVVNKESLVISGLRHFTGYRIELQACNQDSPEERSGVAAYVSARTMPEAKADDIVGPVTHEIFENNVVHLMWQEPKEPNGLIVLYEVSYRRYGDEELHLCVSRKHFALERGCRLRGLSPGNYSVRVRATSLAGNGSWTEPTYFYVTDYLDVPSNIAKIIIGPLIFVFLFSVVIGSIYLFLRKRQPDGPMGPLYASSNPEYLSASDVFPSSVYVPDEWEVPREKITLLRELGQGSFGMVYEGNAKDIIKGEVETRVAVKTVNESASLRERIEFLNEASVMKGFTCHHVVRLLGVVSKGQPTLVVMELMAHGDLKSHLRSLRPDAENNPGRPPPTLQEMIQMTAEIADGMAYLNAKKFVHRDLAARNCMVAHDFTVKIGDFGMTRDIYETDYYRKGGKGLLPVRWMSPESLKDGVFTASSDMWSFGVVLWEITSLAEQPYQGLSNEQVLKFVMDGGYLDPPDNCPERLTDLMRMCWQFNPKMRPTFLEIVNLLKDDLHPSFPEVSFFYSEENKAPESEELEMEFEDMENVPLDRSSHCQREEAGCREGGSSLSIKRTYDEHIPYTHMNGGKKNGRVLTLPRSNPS

Regarding “insulin: human insulin, peptide hormone, commercially available from Sigma under order number I-9266”, in data set [1], the concentration giving a half-maximal response (EC50) – broadly, the concentration at which the effect is half-maximal – worked out at 0.01 µM.

B1: IRS-1: insulin receptor substrate 1 polypeptide used as kinase substrate (protein, listed as Homo sapiens)
chain: MASPPESDGFSDVRKVGYLRKPKSMHKRFFVLRAASEAGGPARLEYYENEKKWRHKSSAPKRSIPLESCFNINKRADSKNKHLVALYTRDEHFAIAADSEAEQDSWYQALLQLHNRAKGHHDGAAALGAGGGGGSCSGSSGLGEAGEDLSYGDVPPGPAFKEVWQVILKPKGLGQTKNLIGIYRLCLTSKTISFVKLNSEAAAVVLQLMNIRRCGHSENFFFIEVGRSAVTGPGEFWMQVDDSVVAQNMHETILEAMRAMSDEFRPRSKSQSSSNCSNPISVPLRRHHLNNPPPSQVGLTRRSRTESITATSPASMVGGKPGSFRVRASSDGEGTMSRPASVDGSPVSPSTNRTHAHRHRGSARLHPPLNHSRSIPMPASRCSPSATSPVSLSSSSTSGHGSTSDCLFPRRSSASVSGSPSDGGFISSDEYGSSPCDFRSSFRSVTPDSLGHTPPARGEEELSNYICMGGKGPSTLTAPNGHYILSRGGNGHRCTPGTGLGTSPALAGDEAASAADLDNRFRKRTHSAGTSPTITHQKTPSQSSVASIEEYTEMMPAYPPGGGSGGRLPGHRHSAFVPTRSYPEEGLEMHPLERRGGHHRPDSSTLHTDDGYMPMSPGVAPVPSGRKGSGDYMPMSPKSVSAPQQIINPIRRHPQRVDPNGYMMMSPSGGCSPDIGGGPSSSSSSSNAVPSGTSYGKLWTNGVGGHHSHVLPHPKPPVESSGGKLLPCTGDYMNMSPVGDSNTSSPSDCYYGPEDPQHKPVLSYYSLPRSFKHTQRPGEPEEGARHQHLRLSTSSGRLLYAATADDSSSSTSSDSLGGGYCGARLEPSLPHPHHQVLQPHLPRKVDTAAQTNSRLARPTRLSLGDPKASTLPRAREQQQQQQPLLHPPEPKSPGEYVNIEFGSDQSGYLSGPVAFHSSPSVRCPSQLQPAPREEETGTEEYMKMDLGPGRRAAWQESTGVEMGRLGPAPPGAASICRPTRAVPSSRGDYMTMQMSCPRQSYVDTSPAAPVSYADMRTGIAAEEVSLPRATMAAASSSSAASASPTGPQGAAELAAHSSLLGGPQGPGGMSAFTRVNLSPNRNQSAKVIRADPQGCRRRHSSETFSSTPSATRVGNTVPFGAGAAVGGGGGSSSSSEDVKRHSSASFENVWLRPGELGGAPKEPAKLCGAAGGLENGLNYIDLDLVKDFKQCPQECTPEPQPPPPPPPHQPLGSGESSSTRRSSEDLSAYASISFQKQPEDRQ
For the molecule B1, the Km (commonly the concentration of substrate that gives half-maximal velocity) in data set [2] is 19 µM.

Source of the values: US7732151B2, “Use of IRS-polypeptides for identifying of pharmaceutically active compounds” (Sanofi-Aventis Deutschland GmbH, priority 2003, dated 2010).
